Earlier results on one substance are cited in publication PMC12860966.

This data set concerns the target MMP-9 (Homo sapiens) (UniProt P14780).
Chain of UniProt P14780 (P14780 94-707): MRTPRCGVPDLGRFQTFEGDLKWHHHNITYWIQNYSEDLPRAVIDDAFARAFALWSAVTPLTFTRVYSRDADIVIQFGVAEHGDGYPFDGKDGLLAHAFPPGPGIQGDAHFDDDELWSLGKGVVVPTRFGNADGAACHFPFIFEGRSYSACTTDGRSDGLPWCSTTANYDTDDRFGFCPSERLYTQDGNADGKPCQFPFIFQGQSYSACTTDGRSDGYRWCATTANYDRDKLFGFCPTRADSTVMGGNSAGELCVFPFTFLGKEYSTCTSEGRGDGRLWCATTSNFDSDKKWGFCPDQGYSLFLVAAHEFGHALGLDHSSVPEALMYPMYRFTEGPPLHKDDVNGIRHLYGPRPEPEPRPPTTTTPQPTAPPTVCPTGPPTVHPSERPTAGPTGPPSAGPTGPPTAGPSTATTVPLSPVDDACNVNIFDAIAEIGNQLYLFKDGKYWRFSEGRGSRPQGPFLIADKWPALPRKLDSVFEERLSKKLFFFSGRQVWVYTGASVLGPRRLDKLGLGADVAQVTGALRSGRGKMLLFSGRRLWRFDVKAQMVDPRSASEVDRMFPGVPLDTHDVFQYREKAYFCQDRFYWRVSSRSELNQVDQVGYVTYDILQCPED

For the substance TIMP-1 (from UniProt P01033), the Ki was 3.36 nM.
